We go through three proteins from article PMC10506485, “Human astrovirus capsid protein releases a membrane lytic peptide upon trypsin maturation” (Journal of Virology, 2023).

The data set deals with the molecule itself. The data set can be described thus: SEC; Superdex-200 or Superdex-75 size exclusion column; 50 mM Tris-HCl pH 8.0, 150 mM NaCl, 1 mM NaN3; self-association judged from the elution profile. (In general: SEC sorts molecules by how far they enter the pores of the column.)

B1: HAstV8 VP90^72-782 (domain or fragment)
chain: QGVTGPKPAICQTATATLGTIGSNTTGATEIEACILLNPVLVKDATGSTQFGPVQALGAQYSMWKLKYLNVRLTSMVGASAVNGTVVRISLNPTSTPSSTSWSGLGARKHLDVTVGKNAVFKLKPSDLGGPRDGWWLTNTNDNASDTLGPSIEIHTLGQTMSSYQNTQFTGGLFLVELSSAWCFTGYAANPNLVNLVKSTDKSVNVTFEGSAGTPLIMNVPEHSHFARTAVEHSSLSTSLSRAGGESSSDTVWQVLNTAVSAAELVTPPPFNWLVKGGWWFVKLIAGRARTGARRFYVYLSYQDALSNKPALCTGGVPASARQSNPVRTTLQFTQMNQPSLGHGATPMTFGRSIPEPGEQFRVLLTVGPPMAPNTANSQNWVNKTIVPPENQYTVKIGIDLEHYTTMQGFTPVESVSWYTADFQPSDEPSPIPGLYARVNNTKKADVYGVQQFKSSHTNNRHQITSVFLVRVTTSFQVINYTSYFIRGAESGSNVSNLKIRDQTYHTPLQFTQGKWYLLTSTVMHDGPTSSGWVWMNQELTNNIAYRVDPGMMYLITPPPAASQLYFELHTVLPQARSEEPETYVDAPLPEEPPIEEEETDSDFESTEDENDEVDRFDLHPSSESDDDDVENDRATLLSTLLNQGISVERATRITNGAFPTRAARVRRSVYNDLLVSGLSPGAAWSHACEQARRAGDNHDLQLSGSRDHAE
notes: Capsid polyprotein precursor VP90 of human astrovirus serotype 8 (strain Yuc8), residues 72-782, N-terminal truncation; The results name the vector pET28a, the methods pET-SUMOc with an N-terminal 6xHis-SUMO tag; also called aa72–782; source: E. coli (Rosetta 2 (DE3) or BL21), purified (HisTrap, Superdex size exclusion)
Usually stoichiometry N stands for a count of units in the complex or per binding partner. Regarding B1, the “stoichiometry N” value is 2.

B2: HAstV8 VP90^28-782 (domain or fragment)
chain: QSRGRGRSVKITVNSHNKGRRQNGRNKYQSNQRVRKIVNKQLRKQGVTGPKPAICQTATATLGTIGSNTTGATEIEACILLNPVLVKDATGSTQFGPVQALGAQYSMWKLKYLNVRLTSMVGASAVNGTVVRISLNPTSTPSSTSWSGLGARKHLDVTVGKNAVFKLKPSDLGGPRDGWWLTNTNDNASDTLGPSIEIHTLGQTMSSYQNTQFTGGLFLVELSSAWCFTGYAANPNLVNLVKSTDKSVNVTFEGSAGTPLIMNVPEHSHFARTAVEHSSLSTSLSRAGGESSSDTVWQVLNTAVSAAELVTPPPFNWLVKGGWWFVKLIAGRARTGARRFYVYLSYQDALSNKPALCTGGVPASARQSNPVRTTLQFTQMNQPSLGHGATPMTFGRSIPEPGEQFRVLLTVGPPMAPNTANSQNWVNKTIVPPENQYTVKIGIDLEHYTTMQGFTPVESVSWYTADFQPSDEPSPIPGLYARVNNTKKADVYGVQQFKSSHTNNRHQITSVFLVRVTTSFQVINYTSYFIRGAESGSNVSNLKIRDQTYHTPLQFTQGKWYLLTSTVMHDGPTSSGWVWMNQELTNNIAYRVDPGMMYLITPPPAASQLYFELHTVLPQARSEEPETYVDAPLPEEPPIEEEETDSDFESTEDENDEVDRFDLHPSSESDDDDVENDRATLLSTLLNQGISVERATRITNGAFPTRAARVRRSVYNDLLVSGLSPGAAWSHACEQARRAGDNHDLQLSGSRDHAE
notes: Capsid polyprotein precursor VP90 of human astrovirus serotype 8 (strain Yuc8), residues 28-782, N-terminal truncation; The results name the vector pET28a, the methods pET-SUMOc with an N-terminal 6xHis-SUMO tag; Forms rod-shaped assemblies of about 20 nm diameter and variable length; also called aa28–782; source: E. coli (Rosetta 2 (DE3) or BL21), purified (HisTrap, Superdex-200 size exclusion)
B2: the binding result is listed as “binds”.

B3: HAstV8 VP90^14-782 (domain or fragment)
chain: NNNGRSRSKSRARSQSRGRGRSVKITVNSHNKGRRQNGRNKYQSNQRVRKIVNKQLRKQGVTGPKPAICQTATATLGTIGSNTTGATEIEACILLNPVLVKDATGSTQFGPVQALGAQYSMWKLKYLNVRLTSMVGASAVNGTVVRISLNPTSTPSSTSWSGLGARKHLDVTVGKNAVFKLKPSDLGGPRDGWWLTNTNDNASDTLGPSIEIHTLGQTMSSYQNTQFTGGLFLVELSSAWCFTGYAANPNLVNLVKSTDKSVNVTFEGSAGTPLIMNVPEHSHFARTAVEHSSLSTSLSRAGGESSSDTVWQVLNTAVSAAELVTPPPFNWLVKGGWWFVKLIAGRARTGARRFYVYLSYQDALSNKPALCTGGVPASARQSNPVRTTLQFTQMNQPSLGHGATPMTFGRSIPEPGEQFRVLLTVGPPMAPNTANSQNWVNKTIVPPENQYTVKIGIDLEHYTTMQGFTPVESVSWYTADFQPSDEPSPIPGLYARVNNTKKADVYGVQQFKSSHTNNRHQITSVFLVRVTTSFQVINYTSYFIRGAESGSNVSNLKIRDQTYHTPLQFTQGKWYLLTSTVMHDGPTSSGWVWMNQELTNNIAYRVDPGMMYLITPPPAASQLYFELHTVLPQARSEEPETYVDAPLPEEPPIEEEETDSDFESTEDENDEVDRFDLHPSSESDDDDVENDRATLLSTLLNQGISVERATRITNGAFPTRAARVRRSVYNDLLVSGLSPGAAWSHACEQARRAGDNHDLQLSGSRDHAE
notes: Capsid polyprotein precursor VP90 of human astrovirus serotype 8 (strain Yuc8), residues 14-782, N-terminal truncation; The results name the vector pET28a, the methods pET-SUMOc with an N-terminal 6xHis-SUMO tag; also called aa14–782; source: E. coli (Rosetta 2 (DE3) or BL21), purified (HisTrap, Superdex size exclusion)
As for B3, the binding result is recorded as “binds”.
